Target: nucleosome N(13,91) (chicken)
Test: single-particle FRET

- content of PARP1-nucleosome complexes at 50 nM PARP1: 45%
Substance: poly(ADP-ribose) polymerase 1 (from UniProt P09874 1-1014) (enzyme)

— article PMC8867921
